Experimental data from patent publication US20110059888A1.
*1 amine or outer side, *2 acyl side, *3 side chain or, on linkers, in order; H or OH if unused. [ ]: non-standard residue; d: D form. Ser(Me) = O-methylserine, COC[C@H](N[*:1])C(=O)[*:2]; Arg(Me) = CNC(=N)NCCC[C@H](N)C(=O)O; Ala(cPr) = N[C@@H](CC1CC1)C(=O)O; Hyp = O=C(O)[C@@H]1C[C@@H](O)CN1; 2Pal = N[C@@H](Cc1ccccn1)C(=O)O; 3Pal = N[C@@H](Cc1cccnc1)C(=O)O; 4Pal = N[C@@H](Cc1ccncc1)C(=O)O; Cha = N[C@@H](CC1CCCCC1)C(=O)O

B1: des(1)-Ac-[D-Tyr2,Hyp3,Thr5,Ser(Me)7,Arg(Me)9,Trp10]MS10 (peptide)
peptide: Ac-[dY][Hyp]NTF[Ser(Me)]L[Arg(Me)]W-NH2
SMILES: CNC(=N)NCCC[C@H](NC(=O)[C@H](CC(C)C)NC(=O)[C@H](COC)NC(=O)[C@H](Cc1ccccc1)NC(=O)[C@@H](NC(=O)[C@H](CC(N)=O)NC(=O)[C@@H]1C[C@@H](O)CN1C(=O)[C@@H](Cc1ccc(O)cc1)NC(C)=O)[C@@H](C)O)C(=O)N[C@@H](Cc1c[nH]c2ccccc12)C(N)=O
B2: des(1)-Ac-[D-Tyr2,Hyp3,Thr5,Pya(2)6,Arg(Me)9,Trp10]MS10 (peptide)
peptide: Ac-[dY][Hyp]NT[2Pal]GL[Arg(Me)]W-NH2
SMILES: CNC(=N)NCCC[C@H](NC(=O)[C@H](CC(C)C)NC(=O)CNC(=O)[C@H](Cc1ccccn1)NC(=O)[C@@H](NC(=O)[C@H](CC(N)=O)NC(=O)[C@@H]1C[C@@H](O)CN1C(=O)[C@@H](Cc1ccc(O)cc1)NC(C)=O)[C@@H](C)O)C(=O)N[C@@H](Cc1c[nH]c2ccccc12)C(N)=O
B3: des(1)-Ac-[D-Tyr2,Glu3,Thr5,Arg(Me)9,Trp10]MS10 (peptide)
peptide: Ac-[dY]ENTFGL[Arg(Me)]W-NH2
SMILES: CNC(=N)NCCC[C@H](NC(=O)[C@H](CC(C)C)NC(=O)CNC(=O)[C@H](Cc1ccccc1)NC(=O)[C@@H](NC(=O)[C@H](CC(N)=O)NC(=O)[C@H](CCC(=O)O)NC(=O)[C@@H](Cc1ccc(O)cc1)NC(C)=O)[C@@H](C)O)C(=O)N[C@@H](Cc1c[nH]c2ccccc12)C(N)=O
B4: des(1)-Ac-[D-Tyr2,Hyp3,Thr5,Val7,Arg(Me)9,Trp10]MS10 (peptide)
peptide: Ac-[dY][Hyp]NTFVL[Arg(Me)]W-NH2
SMILES: CNC(=N)NCCC[C@H](NC(=O)[C@H](CC(C)C)NC(=O)[C@@H](NC(=O)[C@H](Cc1ccccc1)NC(=O)[C@@H](NC(=O)[C@H](CC(N)=O)NC(=O)[C@@H]1C[C@@H](O)CN1C(=O)[C@@H](Cc1ccc(O)cc1)NC(C)=O)[C@@H](C)O)C(C)C)C(=O)N[C@@H](Cc1c[nH]c2ccccc12)C(N)=O
B5: des(1)-Ac-[D-Tyr2,Hyp3,Thr5,Pya(3)6,Arg(Me)9,Trp10]MS10 (peptide)
peptide: Ac-[dY][Hyp]NT[3Pal]GL[Arg(Me)]W-NH2
SMILES: CNC(=N)NCCC[C@H](NC(=O)[C@H](CC(C)C)NC(=O)CNC(=O)[C@H](Cc1cccnc1)NC(=O)[C@@H](NC(=O)[C@H](CC(N)=O)NC(=O)[C@@H]1C[C@@H](O)CN1C(=O)[C@@H](Cc1ccc(O)cc1)NC(C)=O)[C@@H](C)O)C(=O)N[C@@H](Cc1c[nH]c2ccccc12)C(N)=O
B6: des(1)-Ac-[D-Tyr2,Hyp3,Thr5,Pya(4)6,Arg(Me)9,Trp10]MS10 (peptide)
peptide: Ac-[dY][Hyp]NT[4Pal]GL[Arg(Me)]W-NH2
SMILES: CNC(=N)NCCC[C@H](NC(=O)[C@H](CC(C)C)NC(=O)CNC(=O)[C@H](Cc1ccncc1)NC(=O)[C@@H](NC(=O)[C@H](CC(N)=O)NC(=O)[C@@H]1C[C@@H](O)CN1C(=O)[C@@H](Cc1ccc(O)cc1)NC(C)=O)[C@@H](C)O)C(=O)N[C@@H](Cc1c[nH]c2ccccc12)C(N)=O
B7: des(1)-Ac-[D-Tyr2,Glu3,Thr5,Cha6,Arg(Me)9,Trp10]MS10 (peptide)
peptide: Ac-[dY]ENT[Cha]GL[Arg(Me)]W-NH2
SMILES: CNC(=N)NCCC[C@H](NC(=O)[C@H](CC(C)C)NC(=O)CNC(=O)[C@H](CC1CCCCC1)NC(=O)[C@@H](NC(=O)[C@H](CC(N)=O)NC(=O)[C@H](CCC(=O)O)NC(=O)[C@@H](Cc1ccc(O)cc1)NC(C)=O)[C@@H](C)O)C(=O)N[C@@H](Cc1c[nH]c2ccccc12)C(N)=O

What follows are molecules tested against human OT7T175 (metastin receptor) (human) (UniProt Q969F8) (assay: cell-based or functional assay).
UniProt Q969F8, sequence (Q969F8 whole entry L364H): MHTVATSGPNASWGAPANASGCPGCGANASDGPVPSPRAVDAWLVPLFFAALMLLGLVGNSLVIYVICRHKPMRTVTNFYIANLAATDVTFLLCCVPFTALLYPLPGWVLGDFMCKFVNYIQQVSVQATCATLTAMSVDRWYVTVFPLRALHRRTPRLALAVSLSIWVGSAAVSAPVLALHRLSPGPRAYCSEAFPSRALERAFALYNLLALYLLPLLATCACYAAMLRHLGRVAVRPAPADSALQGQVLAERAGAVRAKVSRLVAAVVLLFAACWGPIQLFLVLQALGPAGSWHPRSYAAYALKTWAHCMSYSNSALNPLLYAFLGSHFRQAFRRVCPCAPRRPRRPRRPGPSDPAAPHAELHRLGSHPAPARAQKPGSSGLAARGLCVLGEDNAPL

Specific Activity (EC50 of test compound based on EC50 of Metastin (45-54); intracellular calcium, FLIPR) (ratio to EC50 of Metastin (45-54))	Molecule
0.5	des(1)-Ac-[D-Tyr2,Hyp3,Thr5,Cha6,Nva8,Arg(Me)9,Trp10]MS10 (peptide)
0.8	des(1)-Ac-[D-Tyr2,Hyp3,Thr5,Ser(Me)8,Arg(Me)9,Trp10]MS10 (peptide)
0.6	des(1)-Ac-[D-Tyr2,Hyp3,Thr5,Cha6,Gly7Ψ((E)CH═CH)Leu8,Trp10]MS10 (peptide)
1.2	des(1)-Ac-[D-Tyr2,Hyp3,Thr5,Gly7Ψ(CH2S)Leu8,Arg(Me)9,Trp10]MS10 (peptide)
0.4	des(1)-Ac-[D-Tyr2,Hyp3,Thr5,Gly7Ψ((E)CH═CH)Leu8,Trp10]MS10 (peptide)
0.7	des(1)-Ac-[D-Tyr2,Hyp3,Thr5,Nva8,Arg(Me)9,Trp10]MS10 (peptide)
0.5	des(1)-Ac-[D-Tyr2,Hyp3,Thr5,Cha6,Ala7,Arg(Me)9,Trp10]MS10 (peptide)
1.5	des(1)-Ac-[D-Tyr2,Hyp3,Thr5,Aib7,Arg(Me)9,Trp10]MS10 (peptide)
0.4	des(1)-Ac-[D-Tyr2,Pro(4F)3,Thr5,Cha6,Ala(cPr)8,Arg(Me)9,Trp10]MS10 (peptide)
0.5	des(1)-Ac-[D-Tyr2,Hyp3,Thr5,Cha6,Ser(Me)8,Arg(Me)9,Trp10]MS10 (peptide)
1.4	des(1)-Ac-[D-Tyr2,Hyp3,Thr5,Cha6,Leu(Me)8,Arg(Me)9,Trp10]MS10 (peptide)
0.5	des(1)-Ac-[D-Tyr2,Glu3,Thr5,Cha6,Ser(Me)8,Arg(Me)9,Trp10]MS10 (peptide)
0.6	des(1)-Ac-[D-Tyr2,Hyp3,Thr5,Cha6,Nle8,Arg(Me)9,Trp10]MS10 (peptide)
0.6	des(1)-Ac-[D-Tyr2,Hyp3,Thr5,Phe6Ψ(CH2CH2)AzaGly7,Arg(Me)9,Trp10]MS10 (peptide)
1.7	des(1)-Ac-[D-Tyr2,Hyp3,Thr5,Cha6,Gly7Ψ(CH2S)Leu8,Arg(Me)9,Trp10]MS10 (peptide)
0.5	des(1)-Ac-[D-Tyr2,Hyp3,Alb4,Thr5,Cha6,Gly7Ψ((E)CH═CH)Leu8,Trp10]MS10 (peptide)
0.4	des(1)-Ac-[D-Tyr2,Glu3,Thr5,Cha6,Nva8,Arg(Me)9,Trp10]MS10 (peptide)
1	des(1)-Ac-[D-Tyr2,Hyp3,Thr5,Nal(2)6,Arg(Me)9,Trp10]MS10 (peptide)

Specific Activity (EC50 of test compound based on EC50 of Metastin (45-54); intracellular calcium, FLIPR) (ratio to EC50 of Metastin (45-54))	Molecule
0.3	des(1)-Ac-[D-Tyr2,Hyp3,Thr5,Cha6,Arg(Me)9,Trp10]MS10 (peptide)
1.3	Ac-[dY][Hyp]NTFGL[Arg(Me)]W-NH2 (also: Phe5-Gly6 amide replaced by CH2CH2) [des(1)-Ac-[D-Tyr2,Hyp3,Thr5,Phe6Ψ(CH2CH2)Gly7,Arg(Me)9,Trp10]MS10]
1.2	B1
1.2	B2
0.5	B3
1.7	B4
1.2	Ac-[dY][Hyp]NTFGL[Arg(Me)]W-NH2 (also: Phe5-Gly6 amide replaced by (S)CHOH-CH2) [des(1)-Ac-[D-Tyr2,Hyp3,Thr5,Phe6Ψ((S)CHOH-CH2)Gly7,Arg(Me)9,Trp10]MS10]
1.1	Ac-[dY][Hyp]NTFGL[Arg(Me)]W-NH2 (also: Phe5-Gly6 amide bond replaced by COCH2) [des(1)-Ac-[D-Tyr2,Hyp3,Thr5,Phe6Ψ(COCH2)Gly7,Arg(Me)9,Trp10]MS10]
1.4	Ac-[dY][Hyp]NTFGL[Arg(Me)]W-NH2 (also: Phe5-Gly6 amide replaced by (R)CHOH-(E)CH=) [des(1)-Ac-[D-Tyr2,Hyp3,Thr5,Phe6Ψ((R)CHOH-(E)CH=)Gly7,Arg(Me)9,Trp10]MS10]
0.9	B5
0.5	Ac-[dY][Hyp]NTFGL[Arg(Me)]W-NH2 (also: Phe5-Gly6 amide bond replaced by CH2O) [des(1)-Ac-[D-Tyr2,Hyp3,Thr5,Phe6Ψ(CH2O)Gly7,Arg(Me)9,Trp10]MS10]
2.9	Ac-[dY][Hyp]NTFGL[Arg(Me)]W-NH2 (also: Gly6-Leu7 amide replaced by CH2NH) [des(1)-Ac-[D-Tyr2,Hyp3,Thr5,Gly7Ψ(CH2NH)Leu8,Arg(Me)9,Trp10]MS10]
0.7	Ac-[dY][Hyp]NTFGL[Arg(Me)]W-NH2 (also: Phe5-Gly6 amide replaced by (E)CH=CH) [des(1)-Ac-[D-Tyr2,Hyp3,Thr5,Phe6Ψ((E)CH═CH)Gly7,Arg(Me)9,Trp10]MS10]
1.2	Ac-[dY][Hyp]NTFGL[Arg(Me)]W-NH2 [des(1)-Ac-[D-Tyr2,Hyp3,Thr5,Arg(Me)9,Trp10]MS10]
0.9	B6
0.6	B7
1.9	Ac-[dY][Hyp]NT[Ala(cPr)]GL[Arg(Me)]W-NH2 [des(1)-Ac-[D-Tyr2,Hyp3,Thr5,Ala(cPr)6,Arg(Me)9,Trp10]MS10]
1.7	Ac-[dY][Hyp]NTFGL[Arg(Me)]W-NH2 (also: Phe5-Gly6 amide replaced by (S)CHOH-(E)CH=) [des(1)-Ac-[D-Tyr2,Hyp3,Thr5,Phe6Ψ((S)CHOH-(E)CH=)Gly7,Arg(Me)9,Trp10]MS10]
